In patent US20240301385, “DNA MODIFYING ENZYMES AND ACTIVE FRAGMENTS AND VARIANTS THEREOF AND METHODS OF USE” (LIFEEDIT THERAPEUTICS, INC., published 2024):

Assays:
Conditions in all cases: tags: SV40 NLS, 3xFLAG N-term; nucleoplasmin NLS C-term
APG30127-L32-nAPG07433.1 = molecular target: T1, APG30127-L32-nAPG07433.1 (synthetic); assay: cell_activity; HEK293FT; PAM SEQ 152
T1 chain: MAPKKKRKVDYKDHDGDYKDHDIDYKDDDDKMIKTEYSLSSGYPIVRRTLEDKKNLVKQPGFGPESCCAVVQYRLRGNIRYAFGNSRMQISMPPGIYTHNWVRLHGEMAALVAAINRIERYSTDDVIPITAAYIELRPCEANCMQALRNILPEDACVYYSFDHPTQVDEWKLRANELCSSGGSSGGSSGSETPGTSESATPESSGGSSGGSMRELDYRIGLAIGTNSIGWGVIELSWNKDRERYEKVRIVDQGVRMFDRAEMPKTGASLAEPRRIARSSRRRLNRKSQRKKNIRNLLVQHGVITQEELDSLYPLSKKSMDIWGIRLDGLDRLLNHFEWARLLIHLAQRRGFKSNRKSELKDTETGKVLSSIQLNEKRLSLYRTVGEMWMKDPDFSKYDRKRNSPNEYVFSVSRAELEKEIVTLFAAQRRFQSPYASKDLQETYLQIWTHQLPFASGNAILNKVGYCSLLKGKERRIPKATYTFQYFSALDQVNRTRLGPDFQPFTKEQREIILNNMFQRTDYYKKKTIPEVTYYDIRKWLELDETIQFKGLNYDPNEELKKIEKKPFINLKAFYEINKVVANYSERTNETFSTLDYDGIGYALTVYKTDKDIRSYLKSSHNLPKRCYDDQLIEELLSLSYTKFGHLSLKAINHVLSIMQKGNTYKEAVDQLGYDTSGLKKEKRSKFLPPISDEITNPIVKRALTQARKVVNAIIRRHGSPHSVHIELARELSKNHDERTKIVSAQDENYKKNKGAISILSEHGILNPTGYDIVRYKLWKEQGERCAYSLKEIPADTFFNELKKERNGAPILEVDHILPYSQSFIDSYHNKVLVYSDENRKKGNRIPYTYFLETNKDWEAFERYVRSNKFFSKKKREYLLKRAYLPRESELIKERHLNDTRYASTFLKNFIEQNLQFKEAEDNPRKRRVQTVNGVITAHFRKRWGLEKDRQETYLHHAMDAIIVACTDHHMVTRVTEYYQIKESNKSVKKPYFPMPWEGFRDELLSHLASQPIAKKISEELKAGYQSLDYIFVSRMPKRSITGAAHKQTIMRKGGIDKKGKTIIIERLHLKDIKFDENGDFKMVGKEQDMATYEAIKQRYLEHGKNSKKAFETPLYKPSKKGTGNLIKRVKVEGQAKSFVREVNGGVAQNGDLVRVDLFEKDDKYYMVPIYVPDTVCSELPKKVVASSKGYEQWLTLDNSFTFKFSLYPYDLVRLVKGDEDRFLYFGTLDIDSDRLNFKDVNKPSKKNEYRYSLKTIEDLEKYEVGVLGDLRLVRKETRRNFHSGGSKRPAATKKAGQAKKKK
Procedure: (§1) 500 ng of plasmid comprising an expression cassette comprising a coding sequence for each fusion protein shown in Table 3 and 500 ng of plasmid comprising an expression cassette encoding an sgRNA shown in Table 4 were co-transfected into HEK293FT cells at 75-90% confluency in 24-well plates using Lipofectamine 2000 reagent (Life Technologies). Cells were then incubated at […] for 72 h. Following incubation, genomic DNA was then extracted using NucleoSpin 96 Tissue (Macherey-Nagel) following the manufacturer's protocol. The genomic region flanking the targeted genomic site was PCR amplified using the primers in Table 4 and products were purified using ZR-96 DNA Clean and Concentrator (Zymo Research) following the manufacturer's protocol. The purified PCR products were then sent for Next Generation Sequencing on Illumina MiSeq (2×250). Results were analyzed for INDEL formation or introduction of % specific cytosine mutations.
(§2) The position of each nucleotide in the target sequence was determined. “C17” indicates, for example, a cytosine at position 17 of the target sequence. The position of each nucleotide in the target sequence was determined by numbering the first nucleotide in the target sequence closest to the PAM as position 1, and the position number increases in the 3′ direction away from the PAM sequence.

APG30129-L32-nAPG07433.1 = molecular target: T2, APG30129-L32-nAPG07433.1 (synthetic); assay: cell_activity; HEK293FT; PAM SEQ 152
T2 chain: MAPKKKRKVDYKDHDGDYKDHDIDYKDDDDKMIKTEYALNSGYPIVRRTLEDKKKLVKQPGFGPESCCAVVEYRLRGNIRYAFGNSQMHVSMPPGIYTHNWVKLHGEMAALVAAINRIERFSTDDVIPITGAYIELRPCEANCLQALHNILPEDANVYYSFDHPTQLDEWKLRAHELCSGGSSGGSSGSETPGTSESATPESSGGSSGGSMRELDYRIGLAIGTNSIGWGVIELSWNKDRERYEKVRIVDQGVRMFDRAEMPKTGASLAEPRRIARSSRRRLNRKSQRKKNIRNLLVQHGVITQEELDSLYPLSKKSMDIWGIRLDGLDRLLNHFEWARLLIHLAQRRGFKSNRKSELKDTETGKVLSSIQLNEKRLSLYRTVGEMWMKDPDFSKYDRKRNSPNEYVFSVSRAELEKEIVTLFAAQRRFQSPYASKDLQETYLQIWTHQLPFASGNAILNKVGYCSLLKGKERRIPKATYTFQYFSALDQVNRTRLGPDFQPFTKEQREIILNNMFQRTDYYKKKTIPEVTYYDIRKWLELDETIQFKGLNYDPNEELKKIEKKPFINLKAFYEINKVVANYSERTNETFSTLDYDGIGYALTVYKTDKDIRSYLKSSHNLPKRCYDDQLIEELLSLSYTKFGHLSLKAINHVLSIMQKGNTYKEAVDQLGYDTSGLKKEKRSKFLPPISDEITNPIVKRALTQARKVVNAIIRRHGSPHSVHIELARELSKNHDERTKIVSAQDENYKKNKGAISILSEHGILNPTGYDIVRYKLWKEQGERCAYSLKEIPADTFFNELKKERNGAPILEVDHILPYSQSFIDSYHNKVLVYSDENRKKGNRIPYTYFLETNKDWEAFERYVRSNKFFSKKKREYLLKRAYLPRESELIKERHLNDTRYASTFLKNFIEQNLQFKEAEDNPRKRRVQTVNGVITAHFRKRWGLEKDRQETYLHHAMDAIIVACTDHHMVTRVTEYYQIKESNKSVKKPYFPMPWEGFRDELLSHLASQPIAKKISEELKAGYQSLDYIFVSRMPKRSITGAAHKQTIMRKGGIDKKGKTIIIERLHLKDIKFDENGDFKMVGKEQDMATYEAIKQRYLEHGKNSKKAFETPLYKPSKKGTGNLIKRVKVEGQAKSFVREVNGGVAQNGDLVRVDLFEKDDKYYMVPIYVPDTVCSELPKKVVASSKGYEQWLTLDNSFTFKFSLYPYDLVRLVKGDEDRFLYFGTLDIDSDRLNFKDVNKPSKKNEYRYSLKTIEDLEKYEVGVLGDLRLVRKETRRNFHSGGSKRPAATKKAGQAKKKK
Procedure: as §1, §2

nAPG07433.1-APG05840 = nAPG07433.1-APG05840 (synthetic); assay: cell_activity; HEK293FT; C>G predominant; PAM SEQ 152

Row | Binder | activity (APG30127-L32-nAPG07433.1) [% mutated reads] | activity (APG30129-L32-nAPG07433.1) [% mutated reads] | activity (nAPG07433.1-APG05840) [% mutated reads]
1 | SGN000186 sgRNA ; SGN000186 target (ssRNA ; dsDNA) RNA: GGACAGUGCGCAUCUCCCUGGUCAUAGUUCCAUUAAAGCCAAAAGUGGCUUUGAUGUUUCUAUGAUAAGGGUUUCGACCCGUGGCGUCGGGGAUCGCCUGCCCAUUGAAAUGGGCUUCUCCCCAUUUAUU DNA 1: GGACAGTGCGCATCTCCCTG DNA 2: CAGGGAGATGCGCACTGTCC | 14.3 | 11.4 | 
2 | SGN000928 sgRNA ; SGN000928 target (ssRNA ; dsDNA) RNA: GCUUCUACUCUUGGCUUACAACCCAGUCAUAGUUCCAUGAAAGCCAAAAGUGGCUUUGAUGUUUCUAUGAUAAGGGUUUCGGCCCGUGGCGUCGGGGAUCGCCUGCCCAUUCCGAUGGGCUUCUCCCCAUUUAUU DNA 1: GCTTCTACTCTTGGCTTACAACCCA DNA 2: TGGGTTGTAAGCCAAGAGTAGAAGC |  |  | 20.9
